16 molecules from patent US20040009177A1 (SERVICES, published 2004) can be followed below.

Assay [1] addresses purified recombinant soluble polyhistidine-tagged G glycoprotein (respiratory syncytial virus) (UniProt P03423). The assay can be described thus: flow cytometry, GHIS on CX3CR1-293 cells with control antibody (68% without). (Flow cytometry measures light scatter and fluorescence of single cells or particles in a stream.)
Assay [2] deals with CX3CR1 on naive mouse spleen leukocytes (mouse) (UniProt Q9Z0D9). The assay is described as follows: cell-based or functional assay.
Assay [3] deals with CX3CR1 on Vero cells (African green monkey). The assay is described as follows: cell-based or functional assay.
Assay [4] has as its target T1, CX3CR1 on CX3CR1-transfected human embryonic kidney cells (293-CX3CR1 cells) (UniProt P49238 1-355).
T1 construct: whole, on cells; also called CX3C receptor; CX3CR1-293 cells
T1 sequence (looked up): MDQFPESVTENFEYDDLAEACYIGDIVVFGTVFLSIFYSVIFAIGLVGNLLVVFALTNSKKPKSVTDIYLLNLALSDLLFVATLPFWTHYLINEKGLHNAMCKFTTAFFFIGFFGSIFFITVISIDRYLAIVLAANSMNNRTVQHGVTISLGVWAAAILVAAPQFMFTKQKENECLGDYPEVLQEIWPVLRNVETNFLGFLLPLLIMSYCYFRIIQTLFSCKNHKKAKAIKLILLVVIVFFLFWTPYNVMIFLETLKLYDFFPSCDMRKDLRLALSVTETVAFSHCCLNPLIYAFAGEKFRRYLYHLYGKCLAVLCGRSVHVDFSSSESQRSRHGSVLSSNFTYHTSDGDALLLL
The assay is described as follows: flow cytometry, G glycoprotein on CX3CR1-293 cells with competitor peptide (84% without).

The target in assay [5] is T1, CX3CR1 on CX3CR1-transfected human …. The assay can be described thus: inhibition of G glycoprotein binding to CX3CR1, methods described in the examples (no further detail).
Assay [6] has the same target. The assay can be described thus: Scatchard analysis; displacement of 1 nM 125I-fractalkine from 293-CX3CR1 cells by unlabeled Fkn, 2 h 37°C with azide; mean±SD of three experiments.
In assay [7] the target is RSV G glycoprotein, purified from RSV/A2-infected Vero cells (respiratory syncytial virus, A2 strain) (UniProt P03423). The assay can be described thus: cell-based or functional assay.
The next assay addresses T2, mouse Fkn (mouse) (UniProt O35188).
T2 sequence (looked up): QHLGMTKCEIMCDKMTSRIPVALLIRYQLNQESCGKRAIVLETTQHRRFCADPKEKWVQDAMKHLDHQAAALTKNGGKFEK
The assay can be described thus: cell-based or functional assay.

Assay [8] deals with purified recombinant soluble polyhistidine-tagged G glycoprotein (respiratory syncytial virus) (UniProt P03423). The assay can be described thus: flow cytometry, GHIS on CX3CR1-293 cells with antibody (68% without).
For assay [9], the target named is RSV G glycoprotein, purified from RSV/A2-infected Vero cells (respiratory syncytial virus, A2 strain) (UniProt P03423). The assay is described as follows: flow cytometry; inhibition of G glycoprotein binding to 293-CX3CR1 cells, in the absence of heparin.
Assay [10] deals with purified recombinant soluble polyhistidine-tagged G glycoprotein (respiratory syncytial virus) (UniProt P03423). The assay is described as follows: flow cytometry; inhibition of polyhistidine-tagged G glycoprotein binding to 293-CX3CR1 cells.
In assay [11] the target is T1, CX3CR1 on CX3CR1-transfected human …. The assay can be described thus: Scatchard analysis; displacement of 1 nM 125I-fractalkine from 293-CX3CR1 cells by unlabeled G glycoprotein, 2 h 37°C with azide; mean±SD of three experiments.

The Kd is the equilibrium constant for the complex coming apart. Higher therefore signals weaker binding.

CX3CR1 on naive mouse spleen leukocytes (mouse), sequence (Q9Z0D9 whole entry): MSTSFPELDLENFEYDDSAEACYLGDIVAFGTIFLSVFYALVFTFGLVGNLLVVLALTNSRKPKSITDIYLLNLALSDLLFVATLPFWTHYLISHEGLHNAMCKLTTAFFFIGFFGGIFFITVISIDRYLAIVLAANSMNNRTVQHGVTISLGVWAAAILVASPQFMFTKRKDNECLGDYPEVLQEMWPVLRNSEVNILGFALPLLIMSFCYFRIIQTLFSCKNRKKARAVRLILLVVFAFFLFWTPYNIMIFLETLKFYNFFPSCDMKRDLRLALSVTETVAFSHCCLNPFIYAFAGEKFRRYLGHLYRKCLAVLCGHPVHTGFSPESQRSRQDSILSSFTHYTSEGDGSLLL

“anti-F glycoprotein monoclonal antibody 131-2A”: in assay [1], the percent positive staining of GHIS in the presence of the antibody was 60%.
In the case of “mouse Fkn (from UniProt O35188 25-105) (ligand)”, in assay [2], the chemotactic index of mouse leukocytes toward G glycoprotein with Fkn as antagonist (chemotactic index) was 1.2 and the inhibition of mouse leukocyte chemotaxis toward G glycoprotein by Fkn was found to be 75%.
In [3], normal rabbit sera registered an RSV plaque inhibition (%) on Vero cells; Normal rabbit sera (control) of 6%.

B1: G glycoprotein peptide ?-1, 11-mer variant of RT33 with a deletion of ILE in the CX3C motif (peptide)
peptide: TCWACKRIPNK
With B1, in assay [4], the “percent positive staining of G glycoprotein in the presence of the peptide” value (from here on “percent positive staining … of the peptide”) was 73%.

B2: G glycoprotein peptide RT34 (peptide)
peptide: NKKPGKKTTTKP
notes: synthetic 12-mer C-terminal to the CX3C motif
For B2, the “percent positive staining … of the peptide” value in [4] came out at 74%.

B3: G glycoprotein peptide RT33 (peptide)
peptide: TCWAICKRIPNK
notes: synthetic 12-mer with the CX3C motif CWAIC
As for B3, the “percent positive staining … of the peptide” value in assay [4] came out at 48%.

B4: G glycoprotein peptide EYp1, TCAAACKRIPNKK (SEQ ID NO: 5) (peptide)
peptide: TCAAACKRIPNKK
notes: 13-mer variant of RT33 with the motif CAAAC
As to B4, the percent inhibition in assay [5] is more than 90%.

B5: peptide TCFAACKRIPNKK (SEQ ID NO: 11) (peptide)
peptide: TCFAACKRIPNKK
Molecule B5 yielded a percent inhibition in assay [5] of more than 90%.

B6: peptide TCNAACKRIPNKK (SEQ ID NO: 7) (peptide)
peptide: TCNAACKRIPNKK
For B6, the percent inhibition in assay [5] is more than 90%.

B7: peptide TCWAACKRIPNKK (SEQ ID NO: 6) (peptide)
peptide: TCWAACKRIPNKK
Molecule B7 had a percent inhibition in [5] of more than 90%.

B8: peptide TCMAACKRIPNKK (SEQ ID NO: 10) (peptide)
peptide: TCMAACKRIPNKK
In the case of B8, in assay [5], the percent inhibition was more than 90%.

B9: peptide TCDAACKRIPNKK (SEQ ID NO: 8) (peptide)
peptide: TCDAACKRIPNKK
In assay [5], B9 came in with a percent inhibition of more than 90%.

B10: G glycoprotein peptide RT32 (peptide)
peptide: VPCSICSNNPTC
notes: synthetic 12-mer, lacks the CX3C motif
Take B10: the “percent positive staining … of the peptide” value in assay [4] was 72%.

B11: human fractalkine (R&D Diagnostics) (ligand, UniProt P78423 25-100, looked up)
chain: QHHGVTKCNITCSKMTSKIPVALLIHYQQNQASCGKRAIILETRQHRLFCADPKEQWVKDAMQHLDRQAAALTRNG
notes: also called Fkn; human Fkn
Regarding B11, in assay [6], the Kd was found to be 5.8 nM.

B12: anti-G glycoprotein monoclonal antibody 131-2G (antibody, from another filing, V domains shown)
VH: EVQLQQSGPELVKPGTSVKISCKASGYSFTGFTMNWVKQSHGKNLEWFGLINPFNGNTGYNQKFKGKATLTVDKSSSTAFMELLSLTSEDSAVYYCARSGKSYDYEAWFTYWGQGTLVTVSA
VL: DIVMTQTTLSLPVSLGNQASISCRSSQTIVHTNGNTYLEWYLQKPGQSPKLLIYKVSNRFSGVPDRFSGSGSGTDFILNISRVEAEDLGVYYCFQGSHVPFTFGSGTKLEIKR
In assay [7], B12 showed a chemotactic index of mouse leukocytes toward G glycoprotein with anti-G glycoprotein (131-2G) (chemotactic index) of 1.1. The chemotactic index of mouse leukocytes toward Fkn with anti-G glycoprotein (131-2G) (chemotactic index) with mouse Fkn (mouse) amounted to 4.8. The percent positive staining of GHIS in the presence of the antibody in assay [8] stood at 10%. The results for the percent inhibition in [9] and in assay [10] were 32 to 48% and 80 to 88%, respectively.

B13: RSV G glycoprotein, purified from RSV/A2-infected Vero cells (ligand, respiratory syncytial virus, A2 strain, UniProt P03423 1-298, looked up)
chain: MSKNKDQRTAKTLERTWDTLNHLLFISSCLYKLNLKSVAQITLSILAMIISTSLIIAAIIFIASANHKVTPTTAIIQDATSQIKNTTPTYLTQNPQLGISPSNPSEITSQITTILASTTPGVKSTLQSTTVKTKNTTTTQTQPSKPTTKQRQNKPPSKPNNDFHFEVFNFVPCSICSNNPTCWAICKRIPNKKPGKKTTTKPTKKPTLKTTKKDPKPQTTKSKEVPTTKPTEEPTINTTKTNIITTLLTSNTTGNPELTSQMETFHSTSSEGNPSPSQVSTTSEYPSQPSSPPNTPRQ
notes: Lectin and Q-Sepharose purified; concentration estimated with a molecular weight of 90 kD; also called attachment protein
On to B13, for which, in assay [11], the Kd was found to be 2.1 nM. This counts as single-digit nanomolar.
